# Assay results: patent US11780927B2, “Anti-CD40 antibodies for use in prevention of graft rejection” (NOVARTIS AG, priority 2018, dated 2023)
# Several values for one entry are separate records, joined by “and”; a condition that tells them apart may be missing. Equal values may be shown once.
# How the values were obtained:
# [1] = target: recombinant human CD40 (Homo sapiens, UniProt P25942); assay: Surface plasmon resonance analysis of affinity for CD40; format: binding; details: SPR, 25° C.
# Procedure: The binding analyses of recombinant CFZ533 were performed at 25° C. with HBS−EP+ as running buffer. A typical binding analysis cycle consisted of three steps: (i) capture of the antibody via ProteinA immobilized on the chip surface, (ii) binding of CD40 antigen to the captured anti-CD40 antibody, and (iii) regeneration of the ProteinA surface. To determine the kinetic rate constants of the antigen-antibody binding interactions, binding data were processed, double referenced with responses from blank injections. The binding curves were fitted locally using the 1:1 interaction model of the Biacore T100 Evaluation software to determine kinetic rate constants. The value for the equilibrium dissociation constant (KD) was calculated as the ratio of the rate constants kd/ka. All binding measurements were performed in two independent experiments.
# [2] = system: transplanted kidney grafts; assay: Allograft biopsies scored by Chronic Allograft Damage Index (CADI); format: in vivo, human; details: final biopsy
# Text: The quality of the graft was estimated using the Chronic Allograph Damage Index (CADI) (Isoniemi et al. 1992 and 1994), where scores of ≤1 reflects normal renal histology and higher scores correlate with poor long-term outcome (Hayry et al. 2004, Yilmaz et al. 2007, Yilmaz et al. 2003). Pristine renal histology was found in 3 of 5 patients on iscalimab (60%) and in none of the 7 treated with tacrolimus (0%). The average CADI was 1.60±0.60 for CFZ533 (n=5) vs. 5.14±0.80 for tacrolimus (n=7), (mean±SEM, p<0.01 using Student t)
# A PoC Study in de Novo Renal Transplantation (CCFZ533X2101/NCT02217410) using CFZ533 was performed. […] Allograft biopsies were performed on a subset of study patients. A pathologist, blinded to therapy, reviewed and scored all biopsy slides using the established Banff criteria and calculated the chronic allograft damage index (CADI, Nickerson P et al., Legendre C et al., Seron D et al.,). A CADI of 1 or less was considered as ‘normal renal histology’. Two patients were excluded from the analysis, since they switched therapy after only 2 months. […] The average CADI at final biopsy was 1.6±0.6 for CFZ533 and 5.1±0.8 for tacrolimus, p<0.01.
# [3] = system: CD20pos B cells; assay: In vitro B cell depletion in human whole blood; format: cell-based; details: 72 hours; Rituximab 50 μg/ml, CFZ533 dose titration
# Procedure: See supplementary material for detailed methods. Briefly, the ability of CFZ533 to mediated depletion of CD20^pos B cells was monitored in human whole blood over a period of three days in comparison to the B cell depleting antibody Rituximab. For CDC, CFZ533 or Rituximab were incubated with RAJI B cells in the presence or absence of rabbit complement and cell lysis was assessed by luminescence.
# B cells numbers were determined based on CD45pos and CD19pos events falling within lymphocyte FSC (forward-scattered light)/SSC (side-scattered light) gate. Results for individual antibody concentrations were calculated as percent remaining B cells with reference to untreated samples and graphed as a function of log-transformed antibody concentration (adjusted to 100% and shown as a dotted line). Data represent the mean and SD of eight independent donors. […] Concentration dependent killing of the Raji cells was analyzed after 2 hours, where the viability of the cells was measured by determination of the ATP concentration in each well using luciferase. Results are presented as isotype-control normalized relative luciferase units (RLU) as a function of log-transformed antibody concentration.
# [4] = system: human B cell line RI-1; assay: Internalization by image flow cytometry; format: cell-based; details: 3 hours at 37° C.
# Procedure: Internalization of fluorescently tagged CFZ533 and rCD154 was assessed in vitro using the human B cell line RI-1 (Th'ng et al, 1987). CD40 dependence of CFZ533 internalization was assessed using a CD40 knockout RI-1 cell line. Internalization was assessed using an Amnis® image flow cytometer (Merck KHaA, Darnstadt) according to the manufacturer's instructions and data analyzed using ImageStream®^X software.
# FIG. 8B. Relative internalization erode of CFZ533 and rCD154 under permissive conditions (non-permissive erode values subtracted). Each dot represents data from an individual experiment and the population mean is indicated as a horizontal red line. FIG. 8C. Representative images of individual CD40 expressing or CD40 knock-out RI-1 cells cultured with Alexa488 labeled CFZ533 for 3 hours at 37° C. In all experiments, cells were co-stained with AlexaFlour 647 labeled CD45 to demark the cell membrane.
# Sequence of recombinant human CD40 (P25942 21-277): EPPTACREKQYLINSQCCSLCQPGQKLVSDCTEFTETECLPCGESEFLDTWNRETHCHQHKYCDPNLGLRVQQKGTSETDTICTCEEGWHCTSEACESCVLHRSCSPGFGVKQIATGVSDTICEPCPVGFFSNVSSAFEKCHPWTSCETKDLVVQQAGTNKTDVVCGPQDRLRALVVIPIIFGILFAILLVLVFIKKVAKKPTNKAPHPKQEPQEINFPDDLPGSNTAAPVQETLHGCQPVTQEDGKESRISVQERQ
molecule,measurement,setting,value
"HCD122: parental antibody, wild-type IgG1 version of CFZ533 [reference compound]",ka [1/Ms],[1],2.84 ± 0.67 × 10^5 1/Ms
same,kd [1/s],[1],1.26 ± 0.03 × 10^−4 1/s
"C=CC[C@@H]1/C=C(\C)C[C@H](C)C[C@H](OC)[C@H]2O[C@@](O)(C(=O)C(=O)N3CCCC[C@H]3C(=O)O[C@H](/C(C)=C/[C@@H]3CC[C@@H](O)[C@H](OC)C3)[C@H](C)[C@@H](O)CC1=O)[C@H](C)C[C@@H]2OC [tacrolimus, reference compound]",average CADI (mean±SEM),[2],5.14±0.80 and 5.1±0.8
Rituximab: depleting anti-CD20 antibody [reference compound],B cells eliminated in human whole blood,[3],approximately 80%
"rCD154: recombinant human CD154, the CD40 ligand (protein) MQKGDQNPQIAAHVISEASSKTTSVLQWAEKGYYTMSNNLVTLENGKQLTVKRQGLYYIYAQVTFCSNREASSQAPFIASLCLKSPGRFERILLRAANTHSSAKPCGQQSIHLGGVFELQPGASVFVNVTDPSQVSHGTGFTSFGLLKL",Internalization by RI-1 B cells,[4],internalized
